Measurements taken from patent US20180015177A1 (Genentech, published 2018).
Where “and” joins values, the source holds several entries; their conditions need not be identical. Identical values can stand only once.

Key:
[1] = biological target: T1, human Ly6E, N-terminal gD-tagged, stably expressed on PC3 cells (human, UniProt Q16553 21-101); assay: cell-based Ly6E competitive binding assay, human Ly6E; competitor mouse 9B12
T1 construct: GPI-linked protein on cells; also called hu Ly6E; human Ly6E transfected PC3 cells; not shown: N-terminal gD tag of the retroviral vector
T1 sequence: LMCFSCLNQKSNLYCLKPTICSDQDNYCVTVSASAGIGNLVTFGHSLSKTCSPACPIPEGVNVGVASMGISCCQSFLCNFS
Experimental: (§1) Cell-based Ly6E competitive binding assay—Cultured human Ly6E transfected PC3 cells were harvested with 5 mM EDTA containing PBS. Cells were washed with PBS and added onto a 384-well high binding plate (Meso Scale Discovery Technology (MSD); Gaithersburg, Md.). The plate was kept at room temperature for 1 hr to allow cells to adhere to the plate as described (See Lu, Y., Wong, W. L. & Meng, Y. G. A high throughput electrochemiluminescent cell-binding assay for therapeutic anti-CD20 antibody selection. Journal of Immunological Methods 314, 74-79 (2006)). The plate with cells was blocked with fetal bovine serum containing PBS for 1 hr and then cooled on ice. Serially diluted antibody variant samples were mixed with equal volume of fixed concentration of mouse 9B12 Ab. The mixtures were added onto the plates and incubated at 4° C. with gentle shaking for 1 hr.
The plate was then washed with cold PBS and an anti-mouse IgG Fc specific Ab (Jackson ImmunoReserach; West Grove, Pa.) labeled with sulfo-ruthenium tag was added to the plate as the detection reagent. […] After incubation the plate was washed again, and MSD read buffer (MSD; Gaithersburg, Md.) was added onto the wells. The plate was read with a MSD SectorÒ imager 6000. The data was graphed and analyzed using KaleidaGraph software (Synergy Software; Reading, Pa.) to determine IC₅₀ values.

[2] = biological target: T2, Cynomolgus monkey Ly6E, N-terminal gD-tagged, stably expressed on PC3 cells (cynomolgus monkey, UniProt Q16553 21-101 (human entry)); assay: Scatchard analysis on PC3 cells expressing cyno Ly6E
T2 construct: also called cyno Ly6E; not shown: N-terminal gD tag of the retroviral vector
T2 chain: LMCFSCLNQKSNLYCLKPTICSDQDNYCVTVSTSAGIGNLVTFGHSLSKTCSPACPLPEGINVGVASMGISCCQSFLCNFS
Experimental: (§2) A scatchard analysis was performed to determine affinity and binding sites per cell for the antibodies. Hu.9B12v12 antibody was iodinated several times using the Iodogen method. […] Competition reaction mixtures of 50 μL containing a fixed concentration of iodinated antibody and decreasing concentrations of unlabeled antibody were placed into 96-well plates. The PC3 cells stably transduced with retrovirus to express either recombinant human or Cynomolgus monkey gD tagged Ly6E were detached from flasks using Sigma Cell Dissociation Solution and were washed with binding buffer (DMEM with 2% FBS, 50 mM HEPES, pH 7.2, and 0.1% sodium azide). The washed cells were added at an approximate density of 200,000 cells in 0.2 mL of binding buffer to the 96-well plates containing the 50-μL competition reaction mixtures. […] The filters were counted on a Wallac Wizard 1470 gamma counter (PerkinElmer Life and Analytical Sciences; Wellesley, Mass.). The binding data were evaluated using New Ligand software (Genentech), which uses the fitting algorithm of Munson and Rodbard (1980) to determine the binding affinity of the antibody.

[3] = biological target: T1, human Ly6E, N-terminal gD-tagged, …; assay: Scatchard analysis (125I antibody) on PC3 cells expressing gD-tagged human Ly6E
Experimental: as §2

[4] = biological target: T2, Cynomolgus monkey Ly6E, N-terminal …; assay: cell-based Ly6E competitive binding assay, cyno Ly6E; competitor mouse 9B12
[5] = biological target: T3, Hu Ly6E (immobilized on CM5 chip for SPR) (human, UniProt Q16553 21-101); assay: SPR (Biacore T100), Hu Ly6E immobilized, IgG injected, single cycle kinetics, apparent KD
T3 construct: also called human Ly6E
T3 sequence: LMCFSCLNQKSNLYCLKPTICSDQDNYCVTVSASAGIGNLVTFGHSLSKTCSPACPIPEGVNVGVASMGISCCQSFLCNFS
Experimental: SPR Affinity Determination—Affinity determinations were performed by surface plasmon resonance using single cycle kinetics on a BIAcore™-T100. Hu Ly6E was immobilized via EDC/NHS chemistry according to supplier's instructions (˜20 response units (RU)) on a CM5 chip. For kinetic measurement, three-fold serial dilution of anti-Ly6E IgG (5 to 405 nM) in PBST were injected with 200 s for association & 300 s for dissociation at a flow rate of 30 ul/min at 25° C. Binding response was corrected by subtracting both the RU from a blank flow cell and from buffer run on the same flow cell. A 1:1 Languir model of simultaneous fitting of kₒₙ and koff was used to measure the apparent KD.

[6] = biological target: T1, human Ly6E, N-terminal gD-tagged, …; assay: Scatchard analysis on PC3 cells expressing human Ly6E
Experimental: as §2

[7] = biological target: T2, Cynomolgus monkey Ly6E, N-terminal …; assay: Scatchard analysis (125I antibody) on PC3 cells expressing gD-tagged cyno Ly6E
Experimental: as §2

[8] = biological target: T1, human Ly6E, N-terminal gD-tagged, …; assay: cell-based competitive binding on human Ly6E PC3 cells; competitor mouse 9B12
Experimental: as §1
The plate was then washed with cold PBS and an anti-mouse IgG Fc specific Ab (Jackson ImmunoReserach; West Grove, Pa.) labeled with sulfo-ruthenium tag was added to the plate as the detection reagent. The plate was incubated at 4° C. with gentle shaking for 1 hr. After incubation the plate was washed again, and MSD read buffer (MSD; Gaithersburg, Md.) was added onto the wells. The plate was read with a MSD SectorÒ imager 6000. The data was graphed and analyzed using KaleidaGraph software (Synergy Software; Reading, Pa.) to determine IC₅₀ values.

| Binder | Kd [1] [nM] | Kd [2] [nM] | Kd [3] [nM] | Kd [4] [nM] | Kd [5] [nM] | Kd [6] [nM] | Kd [7] [nM] | IC50 [8] |
| --- | --- | --- | --- | --- | --- | --- | --- | --- |
| chimeric 9B12 (antibody, V domains shown, Chimeric IgG with the mouse 9B12 variable domains; also called ch9B12; Ch 9B12) VH: QVQLKESGPGLVAPSQSLSLTCTVSGFSLTGYSVNWVRQPPGKGLEWLGMIWGDGSTDYNSALKSRLTISKDNSKSQVFLKMNSLQTDDTARYYCARDYYFNYASWFAYWGPGTLVTVSA VL: DIQMTQTTSSLSASLGDRVTISCSASQGISNYLNWYQQKPDGTVKLLIYYTSNLHSGVPSRFSGSGSGTDYSLTISNLEPEDIATYYCQQYSELPWTFGGGTKVEIK | 3 to 6 | 4 | 2 | 5 to 7 | 6 | 4 | 2.9 | 3 nM and 6 nM and 5 nM |
| hu9B12.v12 (antibody, V domains shown, Expressed and tested as IgG; Iodinated (125I) tracer plus unlabeled antibody in the Scatchard analysis; also called humanized anti-Ly6E antibody) VH: EVQLVESGPALVKPTQTLTLTCTVSGFSLTGYSVNWIRQPPGKALEWLGMIWGDGSTDYNSALKSRLTISKDTSKNQVVLTMTNMDPVDTATYYCARDYYFNYASWFAYWGQGTLVTVSS VL: DIQMTQSPSSLSASVGDRVTITCSASQGISNYLNWYQQKPGKTVKLLIYYTSNLHSGVPSRFSGSGSGTDYTLTISSLQPEDFATYYCQQYSELPWTFGQGTKVEIK | 15 to 19 | 14 | 4 | 16 to 40 | 7 | 4 | 7.9 | 15 nM and 16 nM |
